In PMC9894260 (Proceedings of the National Academy of Sciences of the …, 2022):

T1: ARPC1 (subunit of fission yeast Arp2/3 complex) (S. pombe, UniProt P78774)
T1 sequence: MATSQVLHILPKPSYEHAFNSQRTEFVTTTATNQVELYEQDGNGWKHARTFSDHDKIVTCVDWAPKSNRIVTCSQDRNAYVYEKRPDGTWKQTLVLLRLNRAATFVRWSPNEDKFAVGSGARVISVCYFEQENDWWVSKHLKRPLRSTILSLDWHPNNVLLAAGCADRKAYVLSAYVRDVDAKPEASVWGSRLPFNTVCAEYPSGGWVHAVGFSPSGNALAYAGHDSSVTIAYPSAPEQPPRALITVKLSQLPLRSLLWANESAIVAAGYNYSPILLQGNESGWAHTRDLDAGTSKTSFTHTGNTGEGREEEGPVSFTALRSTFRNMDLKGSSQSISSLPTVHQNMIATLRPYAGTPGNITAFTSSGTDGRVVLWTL

B1: ARPC2 (subunit of fission yeast Arp2/3 complex) (natural protein)
chain: MLSLDYNNIFIYELLTERFSSENPSSIDQVVTDFDGVTFHISTPEEKTKILISLSMKCYPELVNYGTLDLLKQIYGAYVHEPEMGYNFSILIDLQQLPATDEEKEQLAMSISMLKRNVLAAPFHRAFTKQAELADLARKDPENAPMLDKQATSQELMAIHYRDEETIVLWPEHDRVTVVFSTKFREETDRIFGKVFLQEFVDARRRPAIQTAPQVLFSYRDPPLEIRDIQGIQKGDDFGFVTFVLFERHFTPQNREDCISHIQVFRNTLHFHIKASKAYMHQRMRKRVADFQKVLNRAKPDVELERKTATGRSFVRA

Tests used:
Assay in all cases: cryo-EM structure
[1] = biological target: T1, ARPC1 (subunit of fission yeast Arp2/3 …)
[2] = biological target: B1
[3] = biological target: Arp2 (subunit of fission yeast Arp2/3 complex) (S. pombe, UniProt Q9UUJ1)
Sequence of Arp2 (subunit of fission yeast Arp2/3 complex) (Q9UUJ1 whole entry, one chain of several): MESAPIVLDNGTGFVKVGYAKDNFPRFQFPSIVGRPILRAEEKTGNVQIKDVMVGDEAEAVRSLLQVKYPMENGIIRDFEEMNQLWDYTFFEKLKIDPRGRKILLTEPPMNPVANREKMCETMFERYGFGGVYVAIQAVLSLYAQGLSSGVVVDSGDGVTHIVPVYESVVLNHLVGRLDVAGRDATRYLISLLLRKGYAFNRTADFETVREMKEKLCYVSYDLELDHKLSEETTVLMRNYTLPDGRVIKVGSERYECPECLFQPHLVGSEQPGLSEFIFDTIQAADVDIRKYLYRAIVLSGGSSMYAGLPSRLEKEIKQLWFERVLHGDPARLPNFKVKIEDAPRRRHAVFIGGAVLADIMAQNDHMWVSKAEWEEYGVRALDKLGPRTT

| binding result [1] | binding result [2] | binding result [3] | Binder |
| --- | --- | --- | --- |
| binds | binds |  | ARPC4 (subunit of fission yeast Arp2/3 complex) (natural protein) not shown |
|  |  | binds | ARPC3 (subunit of fission yeast Arp2/3 complex) (natural protein) MPAYHSSFLSLTDVPTTGNIAMLPLKTKFRGPAYPADESQMDIIDECIGLFRANCFFRNFEIKGPADRTLIYGTLFISECLGRVNGLNYRDAERQLNSLALENFSIPGSAGFPLNALYAPPLSPQDAEIMRTYLTQFRQELAYRLLSHVYATEKDHPSKWWTCFSKRRFMNKAL |
| binds |  | binds | B1 |
